For one substance, increase of the Ig domain unfolding force (F unfold, force peaks 1-4) with CARP, AFM force-extension curves, unfolding rate constant α0 of the Ig domains in the absence of applied force with CARP, from the Bell fit of the force clamp data and unfolding rate α of the Ig domains with CARP, AFM force clamp results are on record in article PMC7093598.

Assay [1] deals with titin N2A construct(s), number of N2A-Us elements not stated for the experiment (human) (UniProt Q8WZ42).
Assay [2] shares this target. The source holds these as a separate data set.

The substance “CARP (Cardiac Ankyrin Repeat Protein) 106-319, N-terminally truncated construct corresponding to the titin-binding region (from UniProt Q15327 106-319) (domain or fragment)” registered an increase of the Ig domain unfolding force (F unfold, force peaks 1-4) with CARP, AFM force-extension curves at 400 nm/s in assay [1] of 20 pN. In addition, in assay [2], the unfolding rate constant α0 of the Ig domains in the absence of applied force with CARP, from the Bell fit of the force clamp data stood at 0.43 s⁻¹ and the unfolding rate α of the Ig domains with CARP, AFM force clamp at clamp forces of 100-150 pN; value printed at 100 pN (3.2 s^-1 without CARP) worked out at 2.4 s⁻¹.
